Assay results: publication PMC5967319

Target: eukaryotic initiation factor 4E (eIF4E) (human (endogenous in HEK293T)) (UniProt P06730)
Experiment: pull-down; eIF4E captured from HEK293T lysate (1 mg protein) on m7GTP-agarose (cap analog), 4 °C, 90 min, 50 mM HEPES pH 7.4, 50 mM NaCl; eluted with 0.5 mM m7GTP; blots for eIF4E and 4EBP1; cells in complete medium or medium without His, Arg, Leu or Met for 12 h, or transfected with empty vector, wild-type or T37A/T46A 4EBP1 for 24 h

UniProt P06730, sequence (P06730 whole entry): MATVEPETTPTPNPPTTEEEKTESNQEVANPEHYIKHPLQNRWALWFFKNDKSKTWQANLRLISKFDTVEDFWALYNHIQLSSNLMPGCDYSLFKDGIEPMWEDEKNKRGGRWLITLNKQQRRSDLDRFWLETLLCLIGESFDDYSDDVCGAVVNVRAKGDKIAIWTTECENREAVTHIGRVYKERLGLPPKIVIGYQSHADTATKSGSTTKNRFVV

**Q.** Which fold of 4EBP1 bound to eIF4E against cells with empty vector does the source give for “mutant constitutively active 4EBP1(T37A/T46A) (from UniProt Q60876 1-117) (natural protein)” here?
**A.** 4 fold
